Earlier results in PMC10742149.
pKd: −log10 of the molar value.

Molecular target: SIRP-α (Homo sapiens) (UniProt P78324)
Chain of UniProt P78324 (P78324 31-373): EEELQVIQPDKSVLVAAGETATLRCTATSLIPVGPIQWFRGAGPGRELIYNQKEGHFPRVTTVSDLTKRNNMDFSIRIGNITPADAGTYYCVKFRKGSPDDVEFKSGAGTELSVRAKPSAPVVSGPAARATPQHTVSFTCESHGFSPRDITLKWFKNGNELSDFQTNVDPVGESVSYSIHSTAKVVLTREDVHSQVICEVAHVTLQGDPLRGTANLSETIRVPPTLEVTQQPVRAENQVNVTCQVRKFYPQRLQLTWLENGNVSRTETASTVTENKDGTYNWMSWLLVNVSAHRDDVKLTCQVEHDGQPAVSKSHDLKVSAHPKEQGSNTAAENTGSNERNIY

pKd: 5.70
Substance: CD47 (from UniProt Q08722)
